Data taken from the Immune Epitope Database (IEDB).

Tests used:
HLA-B*18:01 = assay: IEDB peptide-MHC binding, purified MHC/direct/fluorescence; filed as Kd, often an IC50 or EC50 that approximates it; ≥ and ≤ were set here for values at or beyond the usual limits of such assays; conditions: source organism: Influenza A virus (A/WSN/1933(H1N1))
HLA-B*40:01 = assay: as above; conditions: source organism: Influenza A virus (A/WSN/1933(H1N1))
HLA-B*44:02 = assay: as above; conditions: source organism: Influenza A virus (A/WSN/1933(H1N1))
HLA-B*51:01 = assay: IEDB peptide-MHC binding, purified MHC/competitive/radioactivity; filed as Kd, often an IC50 or EC50 that approximates it; ≥ and ≤ were set here for values at or beyond the usual limits of such assays
HLA-A*31:01 = assay: IEDB peptide-MHC binding, purified MHC/direct/fluorescence; filed as Kd, often an IC50 or EC50 that approximates it; ≥ and ≤ were set here for values at or beyond the usual limits of such assays; conditions: source organism: SARS-CoV1
HLA-B*27:05 = assay: as above; conditions: source organism: SARS-CoV1
HLA-A*33:01 = assay: IEDB peptide-MHC binding, purified MHC/competitive/radioactivity; filed as Kd, often an IC50 or EC50 that approximates it; ≥ and ≤ were set here for values at or beyond the usual limits of such assays; conditions: source organism: SARS coronavirus Tor2
HLA-A*68:01 = assay: as above; conditions: source organism: SARS coronavirus Tor2
HLA-A*02:01 = assay: IEDB peptide-MHC binding, purified MHC/competitive/fluorescence; filed as Kd, often an IC50 or EC50 that approximates it; ≥ and ≤ were set here for values at or beyond the usual limits of such assays
HLA-A*26:01 = assay: IEDB peptide-MHC binding, purified MHC/competitive/radioactivity; filed as Kd, often an IC50 or EC50 that approximates it; ≥ and ≤ were set here for values at or beyond the usual limits of such assays
HLA-A*30:02 = assay: as above
HLA-B*15:01 = assay: as above
HLA-B*35:01 = assay: as above
HLA-B*53:01 = assay: as above
HLA-A*23:01 = assay: as above; conditions: source organism: Mammarenavirus guanaritoense
HLA-A*24:02 = assay: as above
HLA-A*29:02 = assay: as above
HLA-A*01:01 = assay: as above; conditions: source organism: Mammarenavirus brazilense
HLA-A*30:01 = assay: as above; conditions: source organism: Mammarenavirus brazilense
HLA-A*32:01 = assay: as above; conditions: source organism: Mammarenavirus brazilense
[1] = source organism: Dengue virus 4 Philippines/H241/1956
[2] = source organism: Dengue virus 3 Martinique/1243/1999
[3] = source organism: Mammarenavirus guanaritoense
[4] = source organism: Dengue virus 3 Singapore/8120/1995
[5] = source organism: Mammarenavirus brazilense

Work on AESRKLLLI yielded a Kd (HLA-B*18:01) of at least 20000 nM, a Kd (HLA-B*40:01) of 158 nM and a Kd (HLA-B*44:02) of at least 53000 nM.
Work on APCKVPIEI yielded a Kd (HLA-B*51:01; [1]) of at least 77400 nM.
For ATFSVPMEK, the Kd (HLA-A*31:01) was 141 nM, the Kd (HLA-B*27:05) was 19000 nM and the Kd (HLA-A*33:01) was 14500 nM. The Kd (HLA-A*68:01) was 0.161 nM.
DLKPENILL showed a Kd (HLA-A*02:01; source organism: Entamoeba histolytica) of at least 20000 nM.
DPFPQSNSPI was tested, and the Kd (HLA-B*51:01; [1]) was 733 nM.
With EMCEDTVTY the Kd (HLA-A*26:01; [1]) was 3900 nM, the Kd (HLA-A*30:02; [1]) was 14300 nM and the Kd (HLA-B*15:01; [1]) was 28.3 nM. The Kd (HLA-B*35:01; [1]) was 681 nM.
EPEVANLDII showed a Kd (HLA-B*53:01; source organism: Dengue virus 1 Brazil/97-11/1997) of 8450 nM.
EPGVVSPTSY gave a Kd (HLA-B*35:01; [2]) of 592 nM and a Kd (HLA-B*53:01; [2]) of 313 nM.
With EPVPMSTYGW the Kd (HLA-B*53:01; [2]) was 158 nM.
With FFGALKFKI the Kd (HLA-A*23:01) was 207 nM, the Kd (HLA-A*24:02; [3]) was 2150 nM and the Kd (HLA-A*29:02; [3]) was 20.3 nM.
FNYCEGTTVV was tested, and the Kd (HLA-B*51:01; [2]) was 1220 nM.
FTPEAKNSTF gave a Kd (HLA-A*24:02; [1]) of 3020 nM and a Kd (HLA-A*26:01; [1]) of 653 nM.
With GLCTLVAM the Kd (HLA-A*02:01; source organism: Human herpesvirus 4 strain B95-8) was 2370 nM.
Work on GMYCRCSHG yielded a Kd (HLA-B*15:01; source organism: Vaccinia virus WR) of 216 nM.
GQTGIQRTVF was tested, and the Kd (HLA-B*15:01; [1]) was 5.95 nM.
Work on HMIAGVLFTF yielded a Kd (HLA-A*24:02; [4]) of 431 nM, a Kd (HLA-A*26:01; [4]) of 1160 nM and a Kd (HLA-B*15:01; [4]) of 2.03 nM.
Sequence HSIKRNYPY has a Kd (HLA-A*01:01) of 53 nM, a Kd (HLA-A*26:01; [5]) of 660 nM and a Kd (HLA-A*29:02; [5]) of 262 nM. For the same sequence, the Kd (HLA-A*30:01) was 141 nM, the Kd (HLA-A*30:02; [5]) was 42.3 nM and the Kd (HLA-A*32:01) was 1720 nM.
